This experiment concerns the target T1, recombinant human C1r2s2 Flag/His tetramer (human, UniProt P09871 16-688; P00736 18-705).
T1 construct: whole entries named; also called hc1r2s2; rC1r2s2
T1 chain 1: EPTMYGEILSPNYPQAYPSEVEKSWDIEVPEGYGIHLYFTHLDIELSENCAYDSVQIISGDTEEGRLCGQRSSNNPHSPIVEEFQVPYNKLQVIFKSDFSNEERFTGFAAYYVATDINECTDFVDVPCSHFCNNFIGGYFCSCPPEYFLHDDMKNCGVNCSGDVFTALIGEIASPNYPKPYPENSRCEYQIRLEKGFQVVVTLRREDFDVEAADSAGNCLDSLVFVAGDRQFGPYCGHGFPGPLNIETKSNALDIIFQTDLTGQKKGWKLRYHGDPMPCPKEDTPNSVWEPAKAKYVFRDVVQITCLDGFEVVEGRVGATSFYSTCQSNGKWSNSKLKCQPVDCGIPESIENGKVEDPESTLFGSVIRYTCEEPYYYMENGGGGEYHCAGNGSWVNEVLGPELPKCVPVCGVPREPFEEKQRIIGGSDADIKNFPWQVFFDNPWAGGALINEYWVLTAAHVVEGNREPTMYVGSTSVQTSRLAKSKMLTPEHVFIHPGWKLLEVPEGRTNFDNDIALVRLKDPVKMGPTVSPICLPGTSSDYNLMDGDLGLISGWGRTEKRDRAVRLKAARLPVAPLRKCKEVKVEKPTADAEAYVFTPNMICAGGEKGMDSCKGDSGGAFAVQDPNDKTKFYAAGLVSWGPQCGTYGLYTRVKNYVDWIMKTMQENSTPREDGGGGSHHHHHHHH
T1 chain 2: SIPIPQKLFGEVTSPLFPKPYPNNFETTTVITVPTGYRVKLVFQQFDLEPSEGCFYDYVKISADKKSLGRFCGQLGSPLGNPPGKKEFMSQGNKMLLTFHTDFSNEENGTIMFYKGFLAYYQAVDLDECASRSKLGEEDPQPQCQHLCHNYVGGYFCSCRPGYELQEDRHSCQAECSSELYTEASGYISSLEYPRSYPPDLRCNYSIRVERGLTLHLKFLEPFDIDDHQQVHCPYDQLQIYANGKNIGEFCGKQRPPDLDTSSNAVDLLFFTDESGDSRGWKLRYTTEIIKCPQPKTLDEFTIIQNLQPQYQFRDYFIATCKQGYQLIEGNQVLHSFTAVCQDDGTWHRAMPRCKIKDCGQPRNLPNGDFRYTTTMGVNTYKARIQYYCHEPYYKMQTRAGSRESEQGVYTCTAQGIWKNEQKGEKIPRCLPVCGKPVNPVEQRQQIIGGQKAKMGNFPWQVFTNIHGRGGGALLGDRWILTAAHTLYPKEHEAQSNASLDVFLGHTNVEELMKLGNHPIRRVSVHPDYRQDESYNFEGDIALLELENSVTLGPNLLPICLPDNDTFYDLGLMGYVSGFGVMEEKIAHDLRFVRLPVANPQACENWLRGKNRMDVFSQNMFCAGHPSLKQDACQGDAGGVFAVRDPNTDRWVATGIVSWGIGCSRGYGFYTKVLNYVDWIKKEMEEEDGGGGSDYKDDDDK
Put plainly: SPR displacement (37 degrees C, pH 7.4): C1r2s2 captured by anti-His, C1q 100 nM pre-bound, antibody 500 nM at 10 micro L/min; time from antibody injection until the antibody sensorgram falls below the buffer sensorgram; competitor native human C1q. The method, then:
An anti-His antibody (GE-Healthcare) was immobilized onto all flow cells of a CM4 sensor chip using an amine coupling kit (GE Healthcare). The antibodies, recombinant human C1r2s2 Flag/His tetramer and native human C1q (Comptech A099) were prepared in pH 7.4 buffer (20 mM ACES, 150 mM NaCl, 1.2 mM CaCl₂, 1 mg/mL BSA (IgG-free), 1 mg/mL CMD, 0.05% Tween 20, 0.005% NaN₃, pH 7.4). Recombinant human C1r2s2 Flag/His tetramer was first captured onto the sensor surface by the anti-His antibody (“hc1r2s2” in FIG. 2A). The capture levels were aimed at 200 resonance unit (RU). Native human C1q was injected at 100 nM to have a capture of 200 RU (“hc1q” in FIG. 2A), followed by antibody injection at 500 nM at 10 micro L/min for 1200 sec immediately. The sensor surface was regenerated each cycle with 10 mM Glycine-HCl (pH 1.5). For the antibodies with the C1q displacement function, the response unit of Sensorgram 2 (large dotted line; “C1r2s2+C1q+Ab” in FIGS. 2A and 2C) is lower than the response unit in Sensorgram 1 (small dotted line; “C1r2s2+C1q+buffer” in FIGS. 2A and 2C) after the time point where Sensorgrams 1 and 2 cross (“time point of crossover”). Depending on the time when Sensorgram 2 crosses over Sensorgram 1, COS0499 was categorized as a fast displacement variant. […] COS0448 was in the middle of fast displacement and slow displacement.
The time point of crossover is identified by subtraction of the buffer response (Sensorgram 1) from the antibody (Ab) response (Sensorgram 2), and referring to the time point when the differential value changes from positive to negative (Table 4). The time from the start of Ab injection is indicated in Table 4 as “time point of crossover”.

The text below walks through data of patent US20210198347A1 (Chugai, published 2021).

B1: COS0637cc-SG1148 (antibody, human IgG1, kappa, V domains shown)
VH: QSLEESGGRLVTPGTPLTLTCTASGFSLSAYAMNWVRQAPGKGLEWIGLIYGSGSTFYASWAKGRFTISKTSTTVDLKMTSLTTEDTATYFCARGRSVNYNSDFKLWGPGTLVTVSS
VL: QVLTQTPSSVSAAVGGTVTINCQASQSLHDKKNLAWYQHKPGQRPNLLIYGASTLESGVPSRFKGSGSGTEYTLTISDLECDDAAAYYCQGEFSCSSADCNTFGGGTKVEIKR
B1: the “Time point of crossover (post-injection)” value turned out to be 764 s.

B2: COS0631gg-SG1148 (antibody, human IgG1, kappa, V domains shown)
VH: QSVEESGGRLVTPGTPLTLTCTVSGFSLSRYSMGWVRQAPGKGLEWIGIIYADGGAYYASWAKGRFTISKTSTTMDLKVTSPTTEDTATYFCARGQFINSNEFFNPWGPGTLVTVSS
VL: QVLTQTASSVSAVVGGTVTINCQASQSLHNNKNLAWYQQKPGQPPRLLIYYASTLASGVSSRFKGSGSGTQFTLTISDLECDDAATYYCAGEFSCSNGDCNAFGGGTKVEIKR
Turning to B2, the “Time point of crossover (post-injection)” value is 736 s.
